According to patent US8409836B2, “Treatment of cellulosic material and enzymes useful therein” (Roal Oy, priority 2005, dated 2013):

Experiments:
Assay type in all cases: biochemical
[1] = Hydrolysis with CBH enzyme mixtures, corn stover; settings: additional enzymes EGII, bG, 48 h, 45° C., pH 5.0
Summary of the method: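 Purified recombinant CBH/Cel7 (14.5 mg/g substrate dry matter) combined with T. reesei EGII/Cel5A or an EGI/EGII/xylanase/AXE mixture, plus β-glucosidase (176 nkat/g). Washed wet-oxidized corn stover, 10 mg/ml in 0.05 M sodium acetate, stirred 48 h at 45° C, triplicate. Reducing sugars by DNS against glucose, versus inactivated-enzyme references.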

[2] = Xylanase activity on birch xylan; settings: purified cellobiohydrolases, 50° C., pH 5.0
Experimental: (§1) The specific activity of the preparations was determined using 4-methylumbelliferyl-β-D-lactoside (MUL), 4-methylumbelliferyl-β-D-cellobioside (MUG2) or 4-methylumbelliferyl-β-D-cellotrioside (MUG3) as substrate (van Tilbeurgh et al., 1988) in 0.05 M sodium citrate buffer pH 5 at 50° C. for 10 min. Endoglucanase and xylanase activities were determined by standard procedures (according to IUPAC, 1987) using carboxymethyl cellulose (CMC) and birch glucuronoxylan (Bailey et al., 1992) as substrates. Specific activity against Avicel was calculated on the basis of reducing sugars formed in a 24 h reaction at 50° C., pH 5.0, with 1% substrate and 0.25 μM enzyme dosage. The protein content of the purified enzyme preparations was measured according to Lowry et al., 1951. To characterize the end products of hydrolysis, soluble sugars liberated in 24 h hydrolysis experiment, as described above, were analysed by HPLC (Dionex). Purified cellobiohydrolase I (CBHI/Cel7A) of Trichoderma reesei was used as a reference.
Acremonium thermophilum ALKO4245 was grown as described in Example 1. The culture supernatant was incubated at 70° C. for 24 hours after which, it was concentrated by ultrafiltration. The pure xylanase was obtained by sequential purification with hydrophobic interaction and cation exchange chromatography followed by gel filtration. The xylanase activity was determined using birch xylan as substrate (procedure of IUPAC 1987). Protein was assayed by BioRad Protein Assay Kit (Bio-Rad Laboratories) using bovine serum albumin as standard.
Thermoascus aurantiacus ALKO4242 was grown as described in Example 1. The pure xylanase was obtained by sequential purification with hydrophobic interaction, anion, and cation exchange chromatography followed by gel filtration. The xylanase activity was determined using birch xylan as substrate (procedure of IUPAC 1987). Protein was assayed by BioRad Protein Assay Kit (Bio-Rad Laboratories) using bovine serum albumin as standard.

[3] = Thermal stability of purified cellobiohydrolases; settings: 0.1% BSA, pH 5.0, 60 min, MUL substrate
Experimental: Thermal stability of the purified cellobiohydrolases was determined at different temperatures. The reaction was performed in the presence of 0.1% BSA at pH 5.0 for 60 min using 4-methylumbelliferyl-β-D-lactoside as substrate. C. thermophilum ALKO4265 CBH/Cel7A and A. thermophilum ALKO4245 CBH/Cel7A were stable up to 65° and 60° C., respectively. The T. reesei reference enzyme (CBHI/Cel7A) retained 100% of activity up to 55° C.

[4] = pH optimum of recombinant CBH/Cel7 proteins; settings: McIlvaine buffer, pH range 3.0-8.0, MUL, 50° C., 10 min
Experimental: (§2) The recombinant CBH/Cel7 enzyme preparations were characterized in terms of pH optimum and thermal stability. The pH optimum of the recombinant CBH/Cel7 proteins from Thermoascus aurantiacus, Chaetomium thermophilum, and Acremonium thermophilum were determined in the universal McIlvaine buffer within a pH range of 3.0-8.0 using 4-methylumbelliferyl-β-D-lactoside (MUL) as a substrate (FIG. 3A). The pH optimum for Ct Cel7A and At Cel7A enzymes is at 5.5, above which the activity starts to gradually drop. The pH optimum of the recombinant crude Ta Cel7A is at 5.0 (FIG. 3A). Thermal stability of the recombinant Cel7 enzymes was determined by measuring the MUL activity in universal McIlvaine buffer at the optimum pH with reaction time of 1 h.

[5] = Specific activity against Avicel; settings: 50° C., pH 5.0, 24 h, 1% substrate, 0.25 μM enzyme
Experimental: as §1

[6] = Thermal stability of recombinant Cel7 enzymes; settings: MUL activity, optimum pH, reaction time 1 h
Experimental: as §2

[7] = Hydrolysis with CBH enzyme mixtures, spruce; settings: additional enzymes EGII, bG; 48 h, 45° C., pH 5.0
Summary of the method: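 Washed SO2-steam pre-treated spruce (10 mg dry matter/ml, 0.05 M sodium acetate) hydrolysed 48 h at 45 °C with each CBH/Cel7 (14.5 mg/g) plus T. reesei EGII (3.6 mg/g), or plus EGI, EGII, xylanase and AXE, all with added β-glucosidase. Reducing sugars measured by DNS against glucose.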

[8] = Specific activity on MUL; settings: purified cellobiohydrolases, 50° C., pH 5.0
Experimental: as §1

[9] = Specific activity on MUG3; settings: purified cellobiohydrolases, 50° C., pH 5.0
Experimental: as §1

[10] = Hydrolysis with CBH enzyme mixtures, Avicel; settings: additional enzymes EGII, bG; 48 h, 45° C., pH 5.0
Summary of the method: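 Each CBH/Cel7 dosed at 14.5 mg/g substrate dry matter with T. reesei EGII/Cel5A (3.6 mg/g) or with EGI (1.8 mg/g), EGII (1.8 mg/g), xylanase (5000 nkat/g) and AXE (250 nkat/g), plus β-glucosidase (176 nkat/g d.w.). Avicel at 10 mg/ml in 0.05 M sodium acetate, stirred 48 h at 45° C, triplicates; reducing sugars by DNS versus glucose standard.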

[11] = Hydrolysis with CBH enzyme mixtures, willow; settings: additional enzymes EGII, bG, 48 h, 45° C., pH 5.0
Summary of the method: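 Purified CBH/Cel7 (14.5 mg/g substrate dry matter) combined with T. reesei EGII/Cel5A (3.6 mg/g) or with EGI (1.8 mg/g), EGII (1.8 mg/g), xylanase pI 9 (5000 nkat/g) and AXE (250 nkat/g), plus β-glucosidase (176 nkat/g). Washed steam-pretreated willow, 10 mg/ml in 0.05 M sodium acetate, 45° C., 48 h. Reducing sugars by DNS (glucose standard).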

[12] = Specific activity on MUG2; settings: purified cellobiohydrolases, 50° C., pH 5.0
Experimental: as §1

[13] = Endoglucanase activity on carboxymethyl cellulose; settings: purified cellobiohydrolases, 50° C., pH 5.0
Experimental: as §1
(§3) Acremonium thermophilum ALKO4245 was grown as described in Example 1. The culture supernatant was incubated at 70° C. for 24 hours after which it was concentrated by ultrafiltration. The pure endoglucanase was obtained by sequential purification with hydrophobic interaction and cation exchange chromatography followed by gel filtration. The endoglucanase activity of the fractions collected during purification was determined using carboxymethyl cellulose (CMC) as substrate (procedure of IUPAC 1987). Protein content was measured by BioRad Assay Kit (Bio-Rad Laboratories) using bovine serum albumine as standard.
as §3, with “Thermoascus aurantiacus ALKO4242 was” for “Acremonium thermophilum ALKO4245 was”, “1.” for “1. The culture supernatant was incubated at 70° C. for 24 hours after which it was concentrated by ultrafiltration.”, “and anion” for “and cation”

[14] = Crystalline cellulose (Avicel) hydrolysis by recombinant cellobiohydrolases; settings: 70° C., pH 5.0, enzyme 1.4 μM
Experimental: The purified recombinant cellobiohydrolases Ct Cel7A, Ta Cel7A, Ta Cel7A+Tr CBD, Ta Cel7A+Ct CBD, At Cel7A as well as the core version of Ct Cel7A (see below) were tested in equimolar amounts in crystalline cellulose hydrolysis at two temperatures, 45° C. and 70° C.; the purified T. reesei Tr Cel7A and its core version (see below) were used as comparison. The crystalline cellulose (Ph 101, Avicel; Fluka, Bucsh, Switzerland) hydrolysis assays were performed in 1.5 ml tube scale 50 mM sodium acetate, pH 5.0. Avicel was shaken at 45° C. or at 70° C., with the enzyme solution (1.4 μM), and the final volume of the reaction mixture was 325 μl. The hydrolysis was followed up to 24 hours taking samples at six different time points and stopping the reaction by adding 163 μl of stop reagent containing 9 vol of 94% ethanol and 1 vol of 1 M glycine (pH 11). […] The formation of soluble reducing sugars in the supernatant was determined by para-hydroxybenzoicacidhydrazide (PAHBAH) method (Lever, 1972) using a cellobiose standard curve (50 to 1600 μM cellobiose). […] The absorbance of the samples at 405 nm was measured.
The core versions of the cellobiohydrolases harboring a CBD in their native form were obtained as follows: Ct Cel7A and Tr Cel7A were exposed to proteolytic digestion to remove the cellulose-binding domain. […] The product was analysed in SDS-PAGE.

Row | Molecule | Hydrolysis products as reducing sugars, WOCS ([1]; EGI, XYL, AXE) | Hydrolysis products as reducing sugars, WOCS [1] | Specific activity, Xylan [2] | Thermal stability: temperature up to which stable / 100% of activity retained [3] | pH optimum [4] | Specific activity, Avicel [5] | Thermal stability at the higher temperatures (≧65° C.) [6] | Hydrolysis products as reducing sugars, SPRUCE [7] | Specific activity, MUL [8] | Specific activity, MUG3 [9] | Hydrolysis products as reducing sugars, Avicel [10] | Hydrolysis products as reducing sugars, WILLOW ([11]; EGI, XYL, AXE) | Hydrolysis products as reducing sugars, WILLOW [11] | Specific activity, MUG2 [12] | Specific activity, CMC [13] | Avicel hydrolysis as compared to T. reesei Cel7A [14]
1 | At Cel7A: cellobiohydrolase of Acremonium thermophilum ALKO4245, gene At cel7A, amino acid SEQ ID NO: 6, with CBD (protein) MYTKFAALAALVATVRGQAACSLTAETHPSLQWQKCTAPGSCTTVSGQVTIDANWRWLHQTNSSTNCYTGNEWDTSICSSDTDCATKCCLDGADYTGTYGVTASGNSLNLKFVTQGPYSKNIGSRMYLMESESKYQGFTLLGQEFTFDVDVSNLGCGLNGALYFVSMDLDGGVSKYTTNKAGAKYGTGYCDSQCPRDLKFINGQANIDGWQPSSNDANAGLGNHGSCCSEMDIWEANKVSAAYTPHPCTTIGQTMCTGDDCGGTYSSDRYAGICDPDGCDFNSYRMGDTSFYGPGKTVDTGSKFTVVTQFLTGSDGNLSEIKRFYVQNGKVIPNSESKIAGVSGNSITTDFCTAQKTAFGDTNVFEERGGLAQMGKALAEPMVLVLSVWDDHAVNMLWLDSTYPTDSTKPGAARGDCPITSGVPADVESQAPNSNVIYSNIRFGPINSTYTGTPSGGNPPGGGTTTTTTTTTSKPSGPTTTTNPSGPQQTHWGQCGGQGWTGPTVCQSPYTCKYSNDWYSQCL | 6.4 mg/mL | 4.5 mg/mL | 11.3 nkat/mg | ≤ 60 °C | 5.5 | 1.8 nkat/mg | clearly less stable | 3.3 mg/mL | 21.5 nkat/mg | 1.3 nkat/mg | 5.3 mg/mL | 5.4 mg/mL | 3.3 mg/mL | 9.2 nkat/mg | 26.2 nkat/mg | 
2 | Ta Cel7A + Tr CBD: Thermoascus aurantiacus Cel7A fused to linker and CBD of Trichoderma reesei CBHI/Cel7A, SEQ ID NO: 28 (protein) MYQRALLFSFFLAAARAQQAGTVTAENHPSLTWQQCSSGGSCTTQNGKVVIDANWRWVHTTSGYTNCYTGNTWDTSICPDDVTCAQNCALDGADYSGTYGVTTSGNALRLNFVTQSSGKNIGSRLYLLQDDTTYQIFKLLGQEFTFDVDVSNLPCGLNGALYFVAMDADGGLSKYPGNKAGAKYGTGYCDSQCPRDLKFINGQANVEGWQPSANDPNAGVGNHGSCCAEMDVWEANSISTAVTPHPCDTPGQTMCQGDDCGGTYSSTRYAGTCDPDGCDFNPYRQGNHSFYGPGQIVDTSSKFTVVTQFITDDGTPSGTLTEIKRFYVQNGKVIPQSESTISGVTGNSITTEYCTAQKAAFGDNTGFFTHGGLQKISQALAQGMVLVMSLWDDHAANMLWLDSTYPTDADPDTPGVARGTCPTTSGVPADVESQYPNSYVIYSNIKVGPIGSTGNPSGGNPPGGNPPGTTTTRRPATTTGSSPGPTQSHYGQCGGIGYSGPTVCASGTTCQVLNPYYSQCL | 7.2 mg/mL | 4.4 mg/mL |  |  |  |  |  | 4.0 mg/mL |  |  | 5.8 mg/mL | 5.9 mg/mL | 4.0 mg/mL |  |  | superior
